Assay results from FireProtDB (doi:10.1038/9384).

Conditions: Bos taurus; pH 5.3; 5 °C; GdnHCl; Fluorescence; Sodium acetate 0.02 M; whole UniProt chain shown

B1: Acyl-CoA-binding protein wild type, P07107 (protein)
chain: MSQAEFDKAAEEVKHLKTKPADEEMLFIYSHYKQATVGDINTERPGMLDFKGKAKWDAWNELKGTSKEDAMKAYIDKVEELKKKYGI
In the case of B1, the denaturant m value is reported as 3.53 kcal/mol/M and the unfolding free energy is reported as 8.08 kcal/mol.
